Experiment: soluble on expression in E. coli; label from the status in PepcDB or PDB records

Soluble on expression in E. coli, not soluble:
MGSDKIHHHHHHMSVLKATNSIEQRLQIQRLQAPTRVVTSTAGGDVVRGLTQTPKTLPPCYFYDDRGSELFERICELPEYYVTRTETAILQRFAGEIARITGACELVELGSGNSTKTRILLDAYQQLDYPLRYLPIDVCAGILESSAKQLLQDYPSLEVYALAGTYELALAQLTPKKLSSRMICFIGSTLGNLNLQECDVFLSQIRATLNVGEYFLLGVDLQKPKEILEPAYDDSQGVTAEFNLNMLEHLNRSFEGNFDTTQFKHWAFYNESEQRIEMHLKSERSQTVQLKSLNLTVNLAQGETILTEISRKFNLESIQQQLAAKGLIPVQTWTDVNQWFGLLLCQVQG
MGSDKIHHHHHHMSYLTSSRCKLFYEDTAEQNPSLKDKPAILFVNGWAISSRYWRPTIDLLRQDFRCVTYDQSGTGKTSIDGCQPDLTIGGFADEAGALIEHLGLDKSRNLHIVGHSMGGMVATELCLRYRDALLSATILACGIFEETPFTSLGLMFLGGLIDVSMNFRNMFRVEPLRTLFIKRAATGHISKEYSDIIIEDFTTSDKAATNAVGHFSIDPEALRTYTRSVIEIASPVLCCVGMADHTIPPEGTITLFEKRKASATSPTRLVQFMHLGHLPMLEDTPCFVEQLKKHFDFAEHFYKKTQPATPLADRVQIQ
MGSDKIHHHHHHMSYQIEIGSIRCFVVAAEELHFRRAAIRLNMSQPTLSQQIKRLEELMGVQLFIRSTRRVDLTRAGASFLDHARDILLKIDEAILNAKLEAGGLSPGGEELIIGAISPATSQLLPLILSRFRQRFPRTRLAIKEVDSIELLRGIERGDFHVGLMRPPSNSNLVRFRHLLSERFVAVMPRQSALARKPALRLSDFAGHGVFALKRFELSCFETVYEQLSGAGLLIENDIAVSDTNTALALVTAGAGITFLPEWVSAMAPDGVVTRVVDDMSVEISMAVGWNPDCPVPGILPFVEFATLAAQNLISARK
MGSDKIHHHHHHMTAPRELTAETRCGSSMDSSPPTATDDINSADIALRVSALSKTYRIYGRSQDRLLQGLWGNRKQLYREFRALDSISFEIRRGETFGIIGPNGSGKSTLLQLIAGTLTPTQGEIYIKGKVSALLELGAGFNGEFTGRENIRMAASIAGLNPGEIGQRHECIAAYADIGDFLDQPVKTYSSGMYVRLAFAVAISVEPEVLIIDEALAVGDMEFQAKCMVTLKQMQERGTTILFVSHDVGAVSALCKRTLYLKHGRALEIGPTPDVVARYIREVQEANNRKINVTVSENNDSRTTSPSDASETGIAPSHRTASLTSAEAASGAASGFLTAASPFRSVEKKHLARFAENANHCRSGTGDVRVIYAEMTDDEGLPVRSAEFGQSVLIRIIVEAARTCTFSVNYKICDKNRTPVIGADFLMQRQALLTLEPSQQAEALYRTSLPLTDGRYSLRISLTHPVNAHQQALFFDIVEIAHVFEVLPNPTAKFWTQVYLPNTLDVRVLE
MGSDKIHHHHHHMTAPSPEAWLYMLLQTARELELPWLDLIVDQAEMGARWQSRVGALYPPRMLLQDTPHAEAADEGPVLVRLDANQPQTRLLKLLRQWQGQPRVLALFSGWDYDQLAERLTLCMQASWDKGLQQGVLRFHDPRLFAAVVDALDEPRRQLLLEPAVQWHWLDRDGHARMLDATALQSLPPLEWVHDTLTLEQPHIDALACWHLAETWRQNHLLVPQLYGLDSEEELVRRLAQAHQAADKAKLWSEAERIPVVERMLRENA
MGSDKIHHHHHHMTASTVRSPIKVQMRQTGYAARQQRAARMGGMLYQLHELTRNLLAPWVHQAQANAKMFSDPDSLWASLPGAERMAASNELFHRLGKEYEKPAWALDDVEVDGHSLPIIEREVLSKPFCRLLRFKRFSDHVELIGTMKQQPAVLVVAPLSGHHATLLRDTVRTLLRNHKVYVTDWVDARMVPLEAGAFRLEDYIAYIQEFIRHIGAERLHVVSVCQPTVPVLAAVSLMASNDEPTPRSLVMMGGPIDARRSPTQVNNLATENGIEWFQNNLIHTVPFPYPGHGRQVYPGFLQHAGFLSMNPNRHVMSHWDFYTDLVKGDLQDAQAHRQFYDEYNAVLDMPSEYYLDTIRVVFQEFLLPQGKWKVDGQLVMPSAIRNTALLSIEGELDDIAGLGQTEAVHDLCTGIDAAHRRHLVVEGAGHYGIFSGRRWREVVYPQVREFIARYDADPVGSRDPATVTPIRKRGKRA
MGSDKIHHHHHHMTEDNNLGLEFKYLIVNDMDRKFGLWVNTVGYQSIPPDSPYPLKEHPSGYYFNAEKGRVLREYQLVYITKGRGLFSSDSTPERQVCKGRLMVLFPGQWHTYYPLRQTGWTEYYIGFEGPAIDTIVGDAFLSQERQILEVGINEELVSLFSRALEVAEADKISAQQYLSGIVLHMIGMILSISKNKVFEMSDVDQKIEQAKILMNENVSGNIDPEELAMRLNISYSWFRRVFKEYTGYAPAKYFQELKLRKAKQMLVGTSQSVKEISFFLGFQSTEYFFSFFKKRTGLTPLEYRSFGREE
MGSDKIHHHHHHMTEITTLSQFLTTAKTQFQVYDLGRRVQHIDMLAFHQIESLSTPYPYPIQGHAQFAIVFWDASQQHFIWFLKLALDEQGLLSPAPRSQFIEMILAALGQDPTQPLSDEQQERLANNPFNFKPSQEKLAVFNALVRKQLGQRASSQYEFAVQYLSGQVAPAQWQHIGMQGIADVCARANEFDHEQQLVSSFDTAAIEVQIALCQCLEHLLISDTLADKILAKLQDAAPEHQAYFLRALASSAKHSQQAFEHLHGQASLDTNALISIAGRNWSVLKQDSSRSLYLEALALQPQAFFNQVFADIVAIPSLRNQLLGELRNPNRSVQLSQAIGGLFKAASK
MGSDKIHHHHHHMTHPQDQHPPQDARTLPTRDHDASEALLERVRQAAATGTALRLVGGGSKGFYGRPVVGETLSLAEHTGIVNYDPVELVVTVRAGTRLADLQAVLAQEGQQLAFEPPHFGENATVGGTVACGLSGPRRPWAGSVRDFVLGTRMITHDGKRLHFGGEVMKNVAGYDLSRLMVGAQGTLGIIDEVSFKVLPRPAASATLRLEMGLGDAMARLAEWGRKPMPITGAAHDGETLHLRLEGGASSVANTQAQLGGELDDTAFWTQLRELELAFFSRRHDDRPLWRLSLPHRAPPLALDGDTLVDWAGAQRWLRSELPAATIRQHAAQAGGHATLVDRDRAHGVDAPFTPLSVVMDKYHRQLKAKLDPKGIFNPGRLYEGL
MGSDKIHHHHHHMTIEMKNNKNNNCNFPTLRFPEFSGEWKKDIIGNVISVKSEKYNPHSNRTEFICVELESISQGTGELLETFNSAEQKSIKNKFSPGTVLFGKLRPYLRKFYLPYFEGVCSSEIWVMRSNKIEPAFLYSFIQTPYFISLANQSSGSKMPRADWGLIETSKIAYPPNSAERVKIGKFLKLIDERIATQNKIIAHLESLIKGLTNQLLIPNSNWQPTTIGQVLTINPGKDYKHLKEGNIPVYGTGGYMLSVNDYLYDGESVCIGRKGTINKPIFLTGKFWTIDTLFYTSNFNSLLPRFGYYLFKTIDWLKYNEASGVPSLSKVSIEKIHISLPSLAIQNSICRLLDSIYDKLALEESVLNNHQTQKAFILQQMFI
MGSDKIHHHHHHMTITEKRKDFILNSWIKISDDCLKEYLSRELELTDKGQVKSTTTNIITAIVNPDYCVSHKILNGSVFFDTCSQTIRLIGSIKGESEVNLKAPRKWTDQLTNLLGVEIEMNFGIKYSKGRMEEAVIFIANKRRVNLPKLYMKSLKYDGEDYISKLLPKYLGVDDTALNRWIMEHMLIGMVNRVFYPGCKFDEIMVLTGEQGVGKTSFIEKLALLPDWYCSLNNIKGKDAVSNLVGKIVVELEEFVALKNAKTADEAKLFISTRTSTVRLSYERFSADVDRTCIMIATTNDMTFLGDFSGERRYLPVQVHKEKVGLPVMYDQEKFPQLKGVSREEYSKIVKKDFEGAVAQAVYLFENKLYSPVLPVELRKDLNQVIQMHKNENRHVQNFFEFMDWKDTKSDTPNRVCSGEFLSQYPQTNEKVFAELMANEMADKWELEPTDKSRKFKIDGRVRVSKKFYVRKNMPDFIEVTDDIEIPF
MGSDKIHHHHHHMTKIESLGSVKRKAVNISPEDLIKTEFLQPGNNFPLVIKPNVKGVDLQNWAKNNREFLKAELLKYGAILFRDFKVKSIEEFEQIIAAICGEAMEYRYRASPRTQVGGRIYTSTDYPAEQSIFPHNEHAYSPTFPLKIFFFCMSPAAQGGETPIGSCRKVFERIHPDIRDRFIQKKVMYMRNFGDGFGLPWQTVFQTTDKTKVEEYCKINGIEVEWKADNRLRTRQVGPVVLKHPQTGEMVWFNHATFFHVSTLESTIRDSLLTNLPEEDLPTNTYYGDGSAIEPSVLAELRAAYQQEMVTFSWEKGHVLMLDNMLSIHARQPFVPPRKILVGMAEAHTPIPLG
MGSDKIHHHHHHMTKLRIAVQGCCHGQLNQIYKEVSRIHAKTPIDLLIILGDFQSIRDGQDFKSIAIPPKYQRLGDFISYYNNEIEAPVPTIFIGGNHESMRHLMLLPHGGYVAKNIFYMGYSNVIWFKGIRIGSLSGIWKEWDFNKQRPDWNDLENNNWKANIRNLYHVRISDIAPLFMIKHRIDIMLSHDWPNGVVYHGDTKHLLKLKPFFEQDIKEGKLGSPVTWQLLRDLRPQWWLSAHLHVRFMASIKHNKRSHEPPNKSTSKTKKNNNEIDLDLSSDEDERSGIMNCQEENEYDSKYGETRFLALDKCLPRRRWLEILEIEPDTSHASWKDENHRMFWDPEFINNLVICQKNKNLLSNKPFNSVNWIELSQSNREEGRDIDWENYAIPAYTLDIQKDEVRQTKAFISKFMT
MGSDKIHHHHHHMTKNARQTALDVLNDIFGNDAYANISLDRNLRDSELSTVDKAFVTALVYGVVSKKDLLEWHITPFLKKEPKPWAKMLLLLTVYQILFMDKVPTSAAVDEAVKIAKRRDGQATANFINAVLRNFMRSEHRNEEPKDWETKYSMPKLLLDKMVRQFGGKRTGEILESLEKPSHVSLRKIDPTVEISGTRASLLTESALIADSGNFAMTEEFQSGRITIQDETSQLVAPQLDLEGTEEVLDACAAPGGKSTHMAQYLTIGHITALDLYDHKLDLINQNAERQHVADKITTQKADATMIFEEFGSDKFDRILVDAPCSGIGLIRRKPDIRYRKESSDFVDLQKIQLEILNSASKSLKKSGIMVYSTCTIFDEENFDVVRQFLESHPNFEQVEISSDKADMIKEGCIFITPEMYHTDGFFIAKFKKIGE
MGSDKIHHHHHHMTKNSETGHISEGGGILTRPDDATIAYRRLEGKTPGVVFLHGFHSDMEGSKALALEAMCQAQGRAFLRFDYFGHGKSSGDVALGTIGRWAADAVAVIGELTKGPQILVGSSLGGWIALLAALEMKDKVAGLVGVAAAPDFTEDLMWQDFTFEQRRTLMETGELELPNCHEPDNPWRIHRSLIEDGRNHLLLRDLIQIHCPVWLIQGQKDEDVPWQTALRLADCLASEQVEIVLVKDGDHRLSRDGDLIRLTNMVAAMLGMIQEL
MGSDKIHHHHHHMTKQLLVLQSDFGISDGAVSAMYGVINSVSKDLQIYDLTHQIPQFNIWEASYRLLQTVTYWPEDTIFVSIVDPGVGSKRRSVVVLTEDGHYIITPDNGTLTHIAHYGTIKEVRLIDEEKNRLPKSGASHTFHGRDIFAYTAARLAAGVINFEDIGPSATPDSIVSLSLSDSYLEGEQAFGTIDIIDRPFGNLWTNIRRTDFLQLGANYGDSIEVLIKHHDRVVYKNFVTYSRSFADLRIGEALIYVNSLDNLGLGINQGSFVDAYSVGTGTSWKVTLKKV
MGSDKIHHHHHHMTLDNHHCVQLVPLFEKLAEQDLTKVEKIVEHKKIKKGEIIISPDKEPLLVIVAQGALKISQLSQSGKEQLLRIIEAGDYEGEGALLGVTNGQLYGQAMIDSTICFLRQSDFETLLTTYPSLSLQLLKLNAKKYLAAEHQAGFLALDDVEARLAHYFLNLSATSDSIYFEIPMKLKELANYIGTSPETISRKIKVFEENKIISRQGRMIKLLDKEKLEDDFA

— the DeepSol protein solubility set
